The results in this text go back to patent US7968692B2, “Elongase genes and uses thereof” (Abbott Laboratories, priority 1998, dated 2011).

Assay type in all cases: cell-based, Saccharomyces cerevisiae
The test system of data set [1] is S. cerevisiae 334. In words: Expression of M. alpina elongase (MAELO) cDNA in baker's yeast, GC-FAME analysis of lipid fraction. The note with it: substrate GLA; 40-48 hours at 25° C. From the text: The constructs pRAE-5, and pRAE-6 were transformed into S. cerevisiae 334 (Hoveland et al., Gene 83:57-64 (1989)) and screened for elongase activity. The plasmid pCGN7875 (Calgene LLC, Davis, Calif.) containing jojoba KCS gene in pYES2 vector (Invitrogen Corp., Carlsbad, Calif.) was used as a positive control. The substrate used to detect elongase activity in M. alpina elongase (MAELO) was GLA and that in jojoba KCS was oleic acid (OA). The negative control strain was S. cerevisiae 334 containing pYX242 vector. The cultures were grown for 40-48 hours at 25° C., in selective media (Ausubel et al., Short Protocols in Molecular Biology, Ch. 13, p. 3-5 (1992)), in the presence of a particular substrate. The expression of the jojoba KCS gene cloned in pYES2 was under the control of GAL1 promoter, while the promoter in pYX242 is TP1, which is constitutive. […] The GC-FAME analysis of the lipid fraction of each cell pellet was performed as previously described (Knutzon et al., supra).
The jojoba KCS elongates long chain monounsaturated fatty acids 18:1n-9 to 20:1n-9. […] The activity of the M. alpina elongase, elongation (MAELO) of long chain monounsaturated and saturated fatty acids, is seen in the conversion of 18:1n-9 to 20:1n-9 and also in the synthesis of 24:0. The control strain, 334(pYX242) has very little or no detectable amount of 20:1 and 24:0 (see FIG. 10A). […]

For data set [2], the system named is S. cerevisiae 334. The data set can be described thus: MAELO co-expressed with Δ5-desaturase (pCGR-4) in yeast, AA production. The note with it: 25 μM GLA; pRAE-5 and pCGR-4 co-transformed; FIG. 11. The procedure:
Once 20:3n-6 is generated by the M. alpina elongase (MAELO), the Δ5-desaturase can convert it to AA in the desired expression system. To test this hypothesis, the constructs pRAE-5 and pCGR-4 (a Δ5-desaturase containing plasmid) were co-transformed into S. cerevisiae 334 and screened for AA production. The substrate used was 25 μM GLA (18:3n-6). If the M. alpina elongase (MAELO) is active in yeast, then the substrate will be converted to DGLA(20:3n-6), which the Δ5-desaturase will convert to AA(20:4n-6).

Data set [3] has as its system S. cerevisiae 334. In words: Comparison of MAELO and S. cerevisiae ELO2 PUFA elongase activity in baker's yeast. The note with it: 25 μM GLA. From the text: The ELO2 gene encoding for the yeast elongase was cloned from an S. cerevisiae genomic library (Origene, Rockville, Md.) using the primers RO514 (SEQ ID NO: 94) (5′-GGCTATGGATCCATGAATTCACTCGTTACTCAATATG-3′) and RO515 (SEQ ID NO: 95)(5′-CCTGCCAAGCTTTTACCTTTTTCTTCTGTGTTGAG-3′) incorporating the restriction sites (underlined) BamHI and HindIII (respectively). The ELO2 gene was cloned into the vector pYX242 at the BamHI and HindIII sites, designated pRELO, transformed into the S. cerevisiae host 334 (Hoveland et al., supra) and screened for PUFA elongase activity. The vector plasmid was used as a negative control and 334(pRAE-5) was grown to compare the PUFA elongase activity. The cultures were grown as previously described with no galactose in the media and 25 μM GLA added as a substrate. […] Additionally, when DGLA produced is expressed as a percent of the total lipids (shown in parenthesis, FIG. 12), the clones 334(pRELO-1) and 334 (pRELO-2) produced 0.153% and 0.2% DGLA respectively, while 334(pYX242) produced 0.185% DGLA. […] The M. alpina PUFA elongase activity is specific for this conversion as evidenced by the higher amount of DGLA produced compared to the control, 334(pYX242).

The next data set has as its system SC334. In words: MAD (M. alpina direct) cDNA expression library screening in yeast, GLA to DGLA. The procedure:
To screen the library, the glycerol stocks were thawed and approximately 0.5 ml was added to 5 ml of liquid selective media lacking uracil (Ausubel et al., supra) and grown at 30° C. for 24 hours. The culture was then transferred into 50 ml of liquid selective medium lacking uracil with 2% galactose and 25 (D)M GLA (substrate for the elongase enzyme) for 24 hours at 25° C. with shaking. The GC-FAME analysis of the lipid content in the cell pellet of each induced culture was performed as previously described (Knutzon et al., supra). The MAELO (pRAE-5 in pYX242 grown in selective media lacking leucine) was used as a positive control in each batch run. MAELO had consistently been able to convert 1.5% of GLA to DGLA (see Example III).
After screening and analyzing approximately 750 individual pools by GC-FAME analysis, as described in Example VIII, one pool of five colonies (i.e., MAD708) appeared to have significant enzymatic activity in converting GLA to DGLA. […] This pool was tested again under identical assay conditions to confirm the initial findings. […] Since MAD708 was a pool of five different clones, it was necessary to isolate the individual cDNA clone which encoded for elongase activity from this pool. To do this, the original MAD708 glycerol stock was plated onto a selective media agar plate lacking uracil (Ausubel et al., supra). […]

B1: MAELO: Mortierella alpina elongase encoded by MAELO cDNA (SEQ ID NO:1), expressed in S. cerevisiae 334 from pRAE-5 (protein, listed as Mortierella alpina)
chain: MAAAILDKVNFGIDQPFGIKLDTYFAQAYELVTGKSIDSFVFQEGVTPLSTQREVAMWTITYFVVIFGGRQIMKSQDAFKLKPLFILHNFLLTIASGSLLLLFIENLVPILARNGLFYAICDDGAWTQRLELLYYLNYLVKYWELADTVFLVLKKKPLEFLHYFHHSMTMVLCFVQLGGYTSVSWVPITLNLTVHVFMYYYYMRSAAGVRIWWKQYLTTLQIVQFVLDLGFIYFCAYTYFAFTYFPWAPNVGKCAGTEGAALFGCGLLSSYLLLFINFYRITYNAKAKAAKERGSNFTPKTVKSGGSPKKPSKSKHI
For the molecule B1, in the data set on S. cerevisiae 334 [1], the “percentage of 20:3n-6 in total lipid” value was 0.324% and the “total amount of 20:3n-6 produced” value came out at 2.504 µg. In addition, the AA production result with S. cerevisiae 334 [2] is listed as “confirm the production of AA”. The “increase of percent DGLA over 334(pYX242) (negative control)” value in the data set on S. cerevisiae 334 [3] is recorded as 50.8%. For the same molecule, in the data set with S. cerevisiae 334 [3] (FIG. 12), the “DGLA produced as a percent of the total lipids” value is reported as 0.279% and the “amount of 20:3n-6 or DGLA produced relative to negative control pYX242” value is reported as “approximately 4 times”. In the data set with SC334 (individual clones of MAD708 pool, FIG. 20), the “conversion of GLA to DGLA” value came to 3.4%. Besides, in the data set on SC334 (positive control in each batch run of library screening), the “conversion of GLA to DGLA” value amounted to 1.5%.
